Assay results from patent publication US20210380697A1 (HUMMINGBIRD BIOSCIENCE PTE, published 2021).

B1: IGN175A IgG1 (antibody, V domains shown)
VH: QVQLQQSGAELMKPGASVKISCKATGYTFSTHWIEWVKQRPGHGLEWIGEILPGSGSTSYNEKFKGKATFTADTSSNTAYMQLSSLTSEDSAVYYCARWLLYYYAMDYWGQGTSVTVSS
VL: DVLMTQTPLSLPVSLGDQASISCRSSQSIVHSNGNTYLEWYLQKPGQSPKLLIYKLSNRFSGVPDRFSGSGSGTDFTLKISRVEAEDLGVYYCFQGSHFPYTFGGGTKLEIKR
notes: Prior-art comparator (WO 2014/197849)
B2: anti-VISTA clone V4-C1 IgG1 (antibody, V domains shown)
VH: QVQLQESGPGLVKPSDTLSLTCTVSGYSITSDYAWNWIRQTPGKGLEWIGYITYSGYISYNPSLRSRVTISRDTSKNQFSLKLSSVTAADTAVYSCARALYYPWYFDVWGTGTTVTVSS
VL: EIVITQSPATLSLSPGERATLSCRASSSVGYIHWYQQKPGQAPRPLIYATSNRATGIPARFSGSGSGTDNTLTISSLEPEDSAVYYCQQWSSYPPITFGGGTKLEVKR

Tests used:
His-tagged human VISTA [1] = target: T1, His-tagged human VISTA (human, UniProt Q9H7M9 33-194); test: BLI epitope binning, human VISTA-His on anti-Penta-His sensor; row = saturating antibody 400 nM; competitor added after it: V4-C1 IgG1 300 nM
T1 construct: Bought recombinant protein with a His tag; also called human VISTA-His recombinant protein; hVISTA
Experimental: (§1) Epitope binning experiments were performed by BLI using the Octet QK384 system (ForteBio). […] Biosensors were subsequently treated with 300 nM competing antibody in
(§2) The following antigen-binding molecules were analysed in the experiment: [1639]

His-tagged human VISTA [2] = target: T1, His-tagged human VISTA; test: BLI epitope binning, human VISTA-His on anti-Penta-His sensor; row = saturating antibody 400 nM; competitor added after it: IGN175A IgG1 300 nM
Experimental: as §1, §2

| Binder | change in response upon addition of the competing antibody (His-tagged human VISTA [1]) [nm] | change in response upon addition of the competing antibody (His-tagged human VISTA [2]) [nm] |
| --- | --- | --- |
| B1 | 1.44 | 0.0454 |
| B2 | -0.0158 | 1.07 |
